Assay results: publication PMC9669585

Target: mCherry-PEX5(TPR) (human) (UniProt P50542)
Experiment: FRET or BRET; flowFRET competition in living pex5-/- MEF; mCherry-PEX5(TPR) as acceptor, EGFP-PTS1(SCP2) as donor, Cerulean-tagged protein as competitor; apparent KD1^app and KD2^app by fitting, plotted as Log10(KD2^app)/Log10(KD1^app)

Log10(KD2^app)/Log10(KD1^app) against the donor EGFP-PTS1(SCP2): 1
Substance: Cerulean-PTS1(SCP2) (peptide)
